From US7829528B2, “Compositions and methods for treating STAT-6 associated diseases or conditions” (The Rockefeller University, priority 2004, dated 2010)
Where a SMILES comes first, the peptide text is derived from it. Where no end group is shown, it is not given here. [ ]: non-standard residue; d: D form. pY = N[C@@H](Cc1ccc(OP(=O)(O)O)cc1)C(=O)O

Columns and labels:
murine splenocytes [1] = assay type: cell-based; details: mouse
Method: (§1) To determine the half-life of the intracellular PTD4 peptide in the absence of further uptake, splenocytes were incubated with the FITC-PTD4 peptide for 4 hours, washed and trypsinized, and placed back into complete medium after which intracellular localization of the peptide was monitored over time by flow cytometry. […] To monitor stability of the murine-specific PTD4-STAT-6 peptide (STAT-6-IP; Tyr-Ala-Arg-Ala-Ala-Ala-Arg-Gln-Ala-Arg-Ala-Gly-Arg-Gly-Tyr*-Val-Ser-Thr-Thr; SEQ ID NO:7) in murine splenocytes, cells were incubated with the STAT-6-IP for four hours, after which they were washed and trypsinized. The presence of intracellular STAT-6-IP was monitored by western blot analysis of cell lysates harvested at different time points and resolved by SDS-PAGE. The STAT-6-IP was visualized using anti-phosphoSTAT-6 antibody and data normalized to 100% (Table 2).
To monitor peptide uptake, splenocytes in Dulbecco's Modified Eagle Medium (DMEM)/10% fetal bovine serum (FBS) were incubated continuously with FITC-conjugated PTD4 peptide (100 μM) for 30 minutes to 24 hours. […] Ten thousand cells were subsequently analyzed by flow cytometry. […] Splenocytes were returned to DMEM/10% FBS and intracellular localization of peptide monitored over time by flow cytometry.

murine splenocytes [2] = experiment: Uptake of FITC-conjugated PTD4 peptide by splenocytes (flow cytometry); assay type: cell-based; details: for Percent Maximum (±SEM), peptide uptake: FITC-PTD4 100 μM, normalized to 100%
Method: The ability of the PTD4 protein transduction domain to enter cells was confirmed by incubating murine splenocytes with FITC-conjugated PTD4 peptide (FITC-PTD4). Splenocytes were incubated with FITC-PTD4 for various times (30 minutes to 24 hours), subsequently washed and incubated with trypsin to remove surface bound peptide, and analyzed by flow cytometry. Data was normalized to 100%. Half-maximal peptide uptake occurred at 1 hour and plateaued after 4-6 hours (Table 1).
To monitor peptide uptake, splenocytes in Dulbecco's Modified Eagle Medium (DMEM)/10% fetal bovine serum (FBS) were incubated continuously with FITC-conjugated PTD4 peptide (100 μM) for 30 minutes to 24 hours. At each time point, surface bound peptide was removed by washing cells twice with phosphate-buffered saline (PBS) and then incubating cells with trypsin for five minutes. Ten thousand cells were subsequently analyzed by flow cytometry. To monitor the half-life of intracellular peptide (in the absence of uptake), splenocytes in DMEM/10% FBS were incubated with FITC-conjugated PTD4 peptide (100 μM) for four hours, after which they were washed twice with PBS and incubated with trypsin for five minutes. Splenocytes were returned to DMEM/10% FBS and intracellular localization of peptide monitored over time by flow cytometry.

[3] = Stability of intracellular STAT-6-IP in splenocytes (western blot, anti-phosphoSTAT-6 antibody); assay type: cell-based, murine; details: mouse, murine splenocytes (intracellular peptide after loading); 4 hours loading at 100 μM, washed, trypsinized
Method: as §1
(§2) To monitor stability of the STAT-6-IP in murine splenocytes, cells in DMEM/10% FBS were incubated with the STAT-6-IP (100 μM) for four hours, after which they were washed twice with PBS and trypsinized. Splenocytes were then incubated with soybean trypsin inhibitor (0.5 mg/mL in 10 mM sodium tetraborate) for 5 minutes. The cells were washed again once in PBS and subsequently placed back into complete medium. At different time points, cells were harvested and lysed in tricine sample buffer (100 mM Tris-HCl, pH 6.8, 24% glycerol, 8% SDS, 200 mM DTT). Lysates were clarified and equal concentrations (20 μg/lane) resolved by SDS-PAGE on 18% tris-tricine gels, after which proteins were transferred to PVDF membrane. For western immunoblot analysis, membranes were blocked for one hour in TBST (10 mM Tris-Cl pH 7.4, 2.5 mM EDTA, 150 mM NaCl, 0.1% TWEEN™-20) containing 0.25% gelatin (bloom 275) at room temperature. Blots were incubated with anti-phosphoSTAT-6 antibodies overnight at 4° C. followed by horseradish peroxidase-conjugated bovine anti-rabbit secondary antibody for one hour. Immunoreactive bands were detected by enhanced chemiluminescence, ECLT™ (Amersham Life Sciences, San Francisco, Calif.), visualized and quantified on a FLUORCHEM™ 8000 Imaging System using ALPHAEASE™ software (Alpha Innotech, San Leandro, Calif.).

murine splenocytes [4] = experiment: as above; assay type: cell-based; details: for Percent Maximum (±STD), intracellular STAT-6-IP: normalized to 100%
Method: as §1, §2

Compound | Half-life of intracellular peptide (murine splenocytes [1]) | Percent Maximum (±SEM), peptide uptake (murine splenocytes [2]; 0 hours) | Percent Maximum (±SEM), peptide uptake (murine splenocytes [2]; 0.5 hours) | Percent Maximum (±SEM), peptide uptake (murine splenocytes [2]; 1.0 hours) | Percent Maximum (±SEM), peptide uptake (murine splenocytes [2]; 2.0 hours) | Percent Maximum (±SEM), peptide uptake (murine splenocytes [2]; 4.0 hours) | Percent Maximum (±SEM), peptide uptake (murine splenocytes [2]; 6.0 hours) | Percent Maximum (±SEM), peptide uptake (murine splenocytes [2]; 24.0 hours) | Time after which peptide uptake plateaued (murine splenocytes [2]; continuous incubation, 100 μM) | Time of half-maximal peptide uptake (murine splenocytes [2]; continuous incubation, 100 μM) | half-life at 100 μM [3] | Percent Maximum (±STD), intracellular STAT-6-IP (murine splenocytes [4]; 0.5 hours after 4 hours loading at 100 μM) | Percent Maximum (±STD), intracellular STAT-6-IP (murine splenocytes [4]; 1.0 hours after 4 hours loading at 100 μM) | Percent Maximum (±STD), intracellular STAT-6-IP (murine splenocytes [4]; 4.0 hours after 4 hours loading at 100 μM) | Time peptide remained in the cells (murine splenocytes [4]; 4 hours loading at 100 μM, washed, trypsinized) | Percent Maximum (±STD), intracellular STAT-6-IP (murine splenocytes [4]; 6.0 hours after 4 hours loading at 100 μM) | Percent Maximum (±STD), intracellular STAT-6-IP (murine splenocytes [4]; 8.0 hours after 4 hours loading at 100 μM) | Percent Maximum (±STD), intracellular STAT-6-IP (murine splenocytes [4]; 24.0 hours after 4 hours loading at 100 μM)
FITC-PTD4: FITC-conjugated PTD4 protein transduction domain peptide (PTD4: Tyr-Ala-Arg-Ala-Ala-Ala-Arg-Gln-Ala-Arg-Ala; SEQ ID NO:6) (YARAAARQARA; not fully specified (N-terminus); printed as Tyr-Ala-Arg-Ala-Ala-Ala-Arg-Gln-Ala-Arg-Ala; also: FITC label, position not given here) | approximately four | 4.16 ± 0.53% | 31.2 ± 4.35% | 46.57 ± 6.63% | 69.70 ± 8.60% | 72.86 ± 8.51% | 76.71 ± 7.58% | 78.49 ± 14.11% | 4 to 6 h | 1 h | – | – | – | – | – | – | – | –
CC(C)[C@H](NC(=O)[C@H](Cc1ccc(OP(=O)(O)O)cc1)NC(=O)CNC(=O)[C@H](CCCNC(=N)N)NC(=O)CNC(=O)[C@H](C)NC(=O)[C@H](CCCNC(=N)N)NC(=O)[C@H](C)NC(=O)[C@H](CCC(N)=O)NC(=O)[C@H](CCCNC(=N)N)NC(=O)[C@H](C)NC(=O)[C@H](C)NC(=O)[C@H](C)NC(=O)[C@H](CCCNC(=N)N)NC(=O)[C@H](C)NC(=O)[C@@H](N)Cc1ccc(O)cc1)C(=O)N[C@@H](CO)C(=O)N[C@H](C(=O)N[C@H](C(=O)O)[C@@H](C)O)[C@@H](C)O [STAT-6-IP, Tyr-Ala-Arg-Ala-Ala-Ala-Arg-Gln-Ala-Arg-Ala-Gly-Arg-Gly-Tyr*-Val-Ser-Thr-Thr] (H-YARAAARQARAGRG[pY]VSTT-OH; N-terminus and C-terminus assumed) | – | – | – | – | – | – | – | – | – | – | ~8 h | 100.00 ± 0.00% | 93.69 ± 17.14% | 68.33 ± 17.42% | up to 24 hours | 66.56 ± 15.04% | 46.47 ± 15.98% | 38.50 ± 51.74%
